This note sets out measurements from paper PMC7972864 (2021).

Experiment [1] concerns the target T1, rhKeap1^R415A+Y525A+ (residue 321-609 aa) (human, UniProt Q14145 321-609, R415A | Y525A, biotinylated (site not stated)). Put plainly: BLI.
Experiment [2] concerns the target T1, rhKeap1^R415A+Y525A+ (residue 321-609 …). The experiment in a line: BLI. The source holds these as a separate data set. A general note: In BLI a coated tip is dipped into the sample, and binding shifts an interference pattern.

T1 sequence (Q14145 321-609 R415A/Y525A): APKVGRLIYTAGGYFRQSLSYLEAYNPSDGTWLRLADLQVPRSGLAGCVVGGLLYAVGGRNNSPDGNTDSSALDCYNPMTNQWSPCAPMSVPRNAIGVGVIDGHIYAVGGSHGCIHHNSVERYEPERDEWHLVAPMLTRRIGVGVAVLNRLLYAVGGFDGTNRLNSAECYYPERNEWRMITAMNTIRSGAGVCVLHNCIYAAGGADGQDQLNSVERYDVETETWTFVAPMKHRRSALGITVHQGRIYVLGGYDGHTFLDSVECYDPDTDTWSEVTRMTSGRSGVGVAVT

B1: human Nrf2 protein (natural protein)
chain: MMDLELPPPGLPSQQDMDLIDILWRQDIDLGVSREVFDFSQRRKEYELEKQKKLEKERQEQLQKEQEKAFFAQLQLDEETGEFLPIQPAQHIQSETSGSANYSQVAHIPKSDALYFDDCMQLLAQTFPFVDDNEVSSATFQSLVPDIPGHIESPVFIATNQAQSPETSVAQVAPVDLDGMQQDIEQVWEELLSIPELQCLNIENDKLVETTMVPSPEAKLTEVDNYHFYSSIPSMEKEVGNCSPHFLNAFEDSFSSILSTEDPNQLTVNSLNSDATVNTDFGDEFYSAFIAEPSISNSMPSPATLSHSLSELLNGPIDVSDLSLCKAFNQNHPESTAEFNDSDSGISLNTSPSVASPEHSVESSSYGDTLLGLSDSEVEELDSAPGSVKQNGPKTPVHSSGDMVQPLSPSQGQSTHVHDAQCENTPEKELPVSPGHRKTPFTKDKHSSRLEAHLTRDELRAKALHIPFPVEKIINLPVVDFNEMMSKEQFNEAQLALIRDIRRRGKNKVAAQNCRKRKLENIVELEQDLDHLKDEKEKLLKEKGENDKSLHLLKKQLSTLYLEVFSMLRDEDGKPYSPSEYSLQQTRDGNVFLVPKSKKPDVKKN
With B1, the dissociation rate constant (koff) in experiment [1] was 0.00262 s⁻¹. Also, binding in experiment [2] was put at a Kd of 107 nM.

By koff is commonly meant a measure of how fast the partners let go of each other. Low values mean a long-lived complex, high ones a short-lived complex. For orientation: Kd means the equilibrium constant for the complex coming apart.
